According to patent US20210355204A1 (XOMA TECHNOLOGY, published 2021):

T1: TGFβ2 (human, UniProt P61812 303-414)
T1 construct: Commercial recombinant protein; also called transforming growth factor beta 2
T1 sequence (looked up): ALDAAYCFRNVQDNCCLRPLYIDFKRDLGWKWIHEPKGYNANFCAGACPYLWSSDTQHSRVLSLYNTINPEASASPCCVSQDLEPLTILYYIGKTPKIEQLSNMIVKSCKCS

T2: TGFβ3 (human, UniProt P10600 301-412)
T2 construct: Commercial recombinant protein; also called transforming growth factor beta 3
T2 sequence (looked up): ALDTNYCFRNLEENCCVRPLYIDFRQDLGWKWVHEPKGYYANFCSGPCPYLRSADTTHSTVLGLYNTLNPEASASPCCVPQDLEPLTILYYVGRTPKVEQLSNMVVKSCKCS


Columns and labels:
TGFβ2 [1] = biological target: T1, TGFβ2; test: SPR competition: 4 nM TGFβ pre-mixed with 133 nM of the row's molecule, injected over immobilised XPA.42.089 (competitor)
Experimental: (§1) A CM5 sensor chip (GE Healthcare) was used on a BIACORE 2000 system. The chip was preconditioned with four 30 second injections at 50 uL/minute flow rate of 100 mM HCl prior to immobilization. Running buffer for immobilization was a HEPES Buffered Saline (HBS-EP+) with 10 mM Hepes, 150 mM Sodium Chloride, 3 mM EDTA, and 0.05% Polysorbate 20. The chip surface was activated with a seven minute injection at 10 uL/minute of a freshly mixed 1:1 solution of 0.1 M N-Hydroxysuccinimide (NHS) and 0.4 M 1-Ethyl-3-(3-dimethylaminopropyl) carbodiimide hydrochloride (EDC). […] Injections were monitored and performed sequentially to establish immobilization levels very close to 300 RU. Eight minutes of 1 M Ethanolamine hydrochloride-NaOH pH 8.5 was injected to block the surface. The NHS, EDC, and Ethanolamine used were from the BIACORE Amine Coupling Kit. Fc1 was the activated and deactivated control.
(§2) Competition assays were performed using a running buffer of thoroughly degassed form of the HBS-EP+ buffer above supplemented with 1 mg/mL BSA. […] The TGFβ-RIIb-Fc recombinant receptor (R&D Systems) also was included as a competitor. Samples were allowed to come to equilibrium for 40 minutes at room temperature before the BIACORE run was started. Equilibrated samples were then injected at 30 uL/minute for three minutes over all of the flow cells. Regeneration was performed every cycle with one injection of 50 mM NaOH at 50 uL/minute for 6 seconds (5 μLs) and followed by a thirty second buffer injection. Samples were run in duplicates and analyzed for level of TGFβ bound at the end of the three minutes.

TGFβ1 [2] = biological target: T3, TGFβ1 (human, UniProt P01137 279-390); test: as above
T3 construct: mature; also called transforming growth factor beta 1
Experimental: as §1, §2

TGFβ3 [3] = biological target: T2, TGFβ3; test: as above
Experimental: as §1, §2

TGFβ2 [4] = biological target: T1, TGFβ2; test: SPR (Biacore 2000), antibody immobilised on CM4 chip, TGFβ injected
Experimental: (§3) A CM4 sensor chip (GE Healthcare) was used on a BIACORE 2000 system (GE Healthcare). The chip was preconditioned with two 30 second injections each at 50 μL/minute flow rate of 100 mM HCl, Glycine pH 2.0, 50 mM NaOH, and running buffer prior to immobilization. Running buffer for immobilization was a HEPES Buffered Saline (HBS-EP+) with 10 mM Hepes, 150 mM Sodium Chloride, 3 mM EDTA, and 0.05% Polysorbate 20 (Teknova). The chip surface was activated with a seven minute injection at 10 μL/minute of a freshly mixed 1:1 solution of 0.1 M N-Hydroxysuccinimide (NHS) and 0.4 M 1-Ethyl-3-(3-dimethylaminopropyl) carbodiimide hydrochloride (EDC). Following the activation injection, 1 ug/mL anti-TGFβ antibody in acetate pH 4.5 was injected at 10 μL/minute for one minute, with injections targeting 120 RU. 8 minutes of 1M Ethanolamine hydrochloride-NaOH pH 8.5 was injected to block the surface. The NHS, EDC, and Ethanolamine used were from the BIACORE Amine Coupling Kit.
(§4) Kinetic Analysis was performed using a running buffer of thoroughly degassed form of the HBS-EP+ buffer above supplemented with 1 mg/mL BSA (Sigma Aldrich, St. Louis Mo.). TGFβ sample injections were performed at 50 μL/minute for four minutes with a 900 second dissociation time. […] Regeneration was then performed with three injections of 30 seconds each of 100 mM HCl in 3 M MgCl₂ followed by a final 30 second blank buffer injection.
(§5) The data were analyzed using Scrubber2 (BioLogic Software, Campbell Australia) and was double referenced by subtracting both the blank flow cell data and the averaged bracketing blank injections. […] TGFβ proteins were injected at the same concentrations as described above at 30 μL/minute.

TGFβ1 [5] = biological target: T3, TGFβ1; test: as above
Experimental: as §3, §4, §5

TGFβ3 [6] = biological target: T2, TGFβ3; test: as above
Experimental: as §3, §4, §5

TGFβ2 [7] = biological target: T1, TGFβ2; test: cell-based or functional assay
TGFβ1 [8] = biological target: T3, TGFβ1; test: cell-based or functional assay
TGFβ3 [9] = biological target: T2, TGFβ3; test: cell-based or functional assay
TGFβ2 [10] = biological target: T1, TGFβ2; test: SPR (Biacore 2000), TGFβ immobilised on CM1 chip, antibody injected
Experimental: (§6) The chip surface was activated with four minute injections at 20 μL/minute of a freshly mixed 1:1 solution of 0.1M N-Hydroxysuccinimide (NHS) and 0.4M 1-Ethyl-3-(3-dimethylaminopropyl) carbodiimide hydrochloride (EDC). Following the activation injection a 0.1 ug/mL solution of TGFβ in acetate pH 4.0 was injected at 20 μL/minute for several minutes. […] Injections of TGFβ were performed as a series of 1 to 2 minute injections looking at immobilized level between each injection. The target immobilized density of each TGFβ ligand was 30 RU. After the TGFβ immobilization injections, 4 minutes of 1 M Ethanolamine hydrochloride-NaOH pH 8.5 was injected to block the surface.
(§7) Each of the antibodies was diluted in running buffer to 5 μg/mL (33.3 nM) and 4 subsequent five-fold dilutions were prepared setting up concentrations of 33.33 nM, 6.67 nM, 1.33 nM, 267 pM, and 53 pM for each. These were then injected using the Kinject setting for four minutes at 50 μL/minute, with a 900 second dissociation time. Regeneration was then performed with a 12 μL (14.4 second) injection of 100 mM HCl at 50 μL/minute followed by an 18 second buffer injection. Injections were across all flow cells simultaneously and samples were run injected in quadruplicates with blank injections bracketing each set of descending concentration injection groups for each antibody. This means that before the same sample was injected a second time all other concentrations of all antibodies were injected once.
(§8) The data were analyzed using Scrubber2 (BioLogic Software, Campbell Australia) and were double referenced by subtracting both the blank flow cell data and the averaged bracketing blank injections.

TGFβ1 [11] = biological target: T3, TGFβ1; test: as above
Experimental: as §6, §7, §8

TGFβ3 [12] = biological target: T2, TGFβ3; test: as above
Experimental: as §6, §7, §8

TGFβ2 [13] = biological target: T1, TGFβ2; test: SPR: 4 nM TGFβ without competitor injected over immobilised XPA.42.089 (about 300 RU)
Experimental: as §1, §2

TGFβ1 [14] = biological target: T3, TGFβ1; test: as above
Experimental: as §1, §2

TGFβ3 [15] = biological target: T2, TGFβ3; test: as above
Experimental: as §1, §2

TGFβ2 [16] = biological target: T1, TGFβ2; test: SPR competition: 4 nM TGFβ pre-mixed with 133 nM of the row's molecule, injected over immobilised XPA.42.089 (self competition)
Experimental: as §1, §2

TGFβ1 [17] = biological target: T3, TGFβ1; test: as above
Experimental: as §1, §2

TGFβ3 [18] = biological target: T2, TGFβ3; test: as above
Experimental: as §1, §2

TGFβ2 [19] = biological target: T1, TGFβ2; test: SPR
TGFβ1 [20] = biological target: T3, TGFβ1; test: SPR
TGFβ3 [21] = biological target: T2, TGFβ3; test: SPR

Row | Binder | Kd (TGFβ2 [4]) | koff (TGFβ2 [4]) | kon (TGFβ2 [4]) | Kd (TGFβ1 [5]) | koff (TGFβ1 [5]) | kon (TGFβ1 [5]) | Kd (TGFβ3 [6]) | koff (TGFβ3 [6]) | kon (TGFβ3 [6]) | IL-11 Release Assay - IC50 (A549 cells) (TGFβ2 [7]) | IL-11 Release Assay - IC50 (A549 cells) (TGFβ1 [8]) | Kd (TGFβ2 [10]) | koff (TGFβ2 [10]) | kon (TGFβ2 [10]) | Kd (TGFβ1 [11]) | koff (TGFβ1 [11]) | kon (TGFβ1 [11]) | Kd (TGFβ3 [12]) | koff (TGFβ3 [12]) | kon (TGFβ3 [12]) | further results
1 | XPA.42.068 (antibody, V domains shown) VH: not shown VL: SSELTQPPSVSVAPGEKARITCGGNNIGRKSVHWYQQRPGQAPVVVLYYDRVRPSGIPERFSGSNSGNTATLTITRVEAGDEADYFCQVWDNTSEHVVFGGGTQLTVLG | 0.051 nM | 0.000535 s⁻¹ | 1.04e+07 M⁻¹ s⁻¹ | 0.059 nM | 0.000905 s⁻¹ | 1.53e+07 M⁻¹ s⁻¹ | 0.455 nM | 0.00384 s⁻¹ | 8.45e+06 M⁻¹ s⁻¹ | 0.111 µg/mL | 0.221 µg/mL | 0.109 nM | 0.000798 s⁻¹ | 7.3e+06 M⁻¹ s⁻¹ | 0.313 nM | 0.0017 s⁻¹ | 5.44e+06 M⁻¹ s⁻¹ | 1.3 nM | 0.00696 s⁻¹ | 5.45e+06 M⁻¹ s⁻¹ | average RU of TGFβ binding (TGFβ2 [1]): 5.18 RU; average RU of TGFβ binding (TGFβ1 [2]): 10.8 RU; average RU of TGFβ binding (TGFβ3 [3]): 7.32 RU; IL-11 Release Assay - IC50 (A549 cells) (TGFβ3 [9]): 1.79 µg/mL
2 | TGFβ-RI (recombinant form) (receptor, UniProt P36897 34-126, looked up, also called TGFβ receptor type 1 protein; TGFβ-R1) LQCFCHLCTKDNFTCVTDGLCFVSVTETTDKVIHNSMCIAEIDLIPRDRPFVCAPSSKTGSVTTTYCCNQDHCNKIELPTTVKSSPGLGPVEL |  |  |  |  |  |  |  |  |  |  |  |  |  |  |  |  |  |  |  |  | binding result (TGFβ2 [19]): no binding; binding result (TGFβ1 [20]): no binding; binding result (TGFβ3 [21]): no binding

The remaining binders from weak to strong by Kd (TGFβ2 [4]), led by results:

Row | Kd (TGFβ2 [4]) | koff (TGFβ2 [4]) | kon (TGFβ2 [4]) | Kd (TGFβ1 [5]) | koff (TGFβ1 [5]) | kon (TGFβ1 [5]) | Kd (TGFβ3 [6]) | koff (TGFβ3 [6]) | kon (TGFβ3 [6]) | IL-11 Release Assay - IC50 (A549 cells) (TGFβ2 [7]) | IL-11 Release Assay - IC50 (A549 cells) (TGFβ1 [8]) | Kd (TGFβ2 [10]) | koff (TGFβ2 [10]) | kon (TGFβ2 [10]) | Kd (TGFβ1 [11]) | koff (TGFβ1 [11]) | kon (TGFβ1 [11]) | Kd (TGFβ3 [12]) | koff (TGFβ3 [12]) | kon (TGFβ3 [12]) | Binder | further results
3 | 0.025 nM | 0.000414 s⁻¹ | 1.62e+07 M⁻¹ s⁻¹ | 0.0038 nM | 0.000167 s⁻¹ | 4.4e+07 M⁻¹ s⁻¹ | 1.4 nM | 0.0109 s⁻¹ | 7.7e+06 M⁻¹ s⁻¹ | 0.058 µg/mL | 0.037 µg/mL | 0.29 nM | 0.00139 s⁻¹ | 4.8e+06 M⁻¹ s⁻¹ | 0.177 nM | 0.00106 s⁻¹ | 5.98e+06 M⁻¹ s⁻¹ | > 17 nM | 0.057 s⁻¹ | 3.4e+06 M⁻¹ s⁻¹ | XPA.42.089 (antibody, IgG2, V domains shown) VH: QVQLVQSGAEVKKPGSSVKVSCKASGGTFSSYAISWVRQAPGQGLEWMGGIIPIFGTANYAQKFQGRVTITADESTSTAYMELSSLRSEDTAVYYCARGLWEVRALPSVYWGQGTLVTVSS VL: SYELTQPPSVSVAPGQTARITCGANDIGSKSVHWYQQKAGQAPVLVVSEDIIRPSGIPERISGSNSGNTATLTISRVEAGDEADYYCQVWDRDSDQYVFGTGTKVTVLG | average RU of TGFβ binding (TGFβ2 [13]): 61 RU; average RU of TGFβ binding (TGFβ1 [14]): 63.9 RU; average RU of TGFβ binding (TGFβ3 [15]): 23.6 RU; average RU of TGFβ binding (TGFβ2 [16]): 0.363 RU; average RU of TGFβ binding (TGFβ1 [17]): 1.7 RU; average RU of TGFβ binding (TGFβ3 [18]): 9.77 RU
4 | 0.0029 nM | 4.99e-05 s⁻¹ | 1.71e+07 M⁻¹ s⁻¹ | 0.0017 nM | 7.2e-05 s⁻¹ | 4.25e+07 M⁻¹ s⁻¹ | 0.0057 nM | 7.5e-05 s⁻¹ | 1.3e+07 M⁻¹ s⁻¹ | 0.001 µg/mL | 0.0004 µg/mL | 0.031 nM | 0.000394 s⁻¹ | 1.28e+07 M⁻¹ s⁻¹ | 0.032 nM | 0.000363 s⁻¹ | 1.14e+07 M⁻¹ s⁻¹ | 0.054 nM | 0.000665 s⁻¹ | 1.23e+07 M⁻¹ s⁻¹ | XPA.42.681 (antibody, IgG2, V domains shown) VH: not shown VL: SYVLTQPPSVSVAPGKTARITCGGNNIGFRSVHWYQQKSGQAPVLVIYFDRARPSGIPERFSASNSENTATLTIRRVEAGDEADYYCQVWDSDSDDLVFGGGTQLTVLG | IL-11 Release Assay - IC50 (A549 cells) (TGFβ3 [9]): 0.0008 µg/mL
